Data reported in PMC5342420, “CD109 is identified as a potential nasopharyngeal carcinoma biomarker using aptamer selected by cell-SELEX”.

Key:
[1] = target: T1, CD109 (endogenous, 5-8F cells) (UniProt Q6YHK3); test: flow cytometry; details: whole 5-8F cells, on ice, 10% FBS, library background subtracted, Cells: D-PBS (Ca/Mg-free) + 4.5 g/L glucose, 5 mM MgCl2, 0.1 mg/mL yeast tRNA, 1 mg/mL BSA, on ice 0.5 h, EMSA: binding buffer, 4 C, 5% native PAGE in …
T1 sequence: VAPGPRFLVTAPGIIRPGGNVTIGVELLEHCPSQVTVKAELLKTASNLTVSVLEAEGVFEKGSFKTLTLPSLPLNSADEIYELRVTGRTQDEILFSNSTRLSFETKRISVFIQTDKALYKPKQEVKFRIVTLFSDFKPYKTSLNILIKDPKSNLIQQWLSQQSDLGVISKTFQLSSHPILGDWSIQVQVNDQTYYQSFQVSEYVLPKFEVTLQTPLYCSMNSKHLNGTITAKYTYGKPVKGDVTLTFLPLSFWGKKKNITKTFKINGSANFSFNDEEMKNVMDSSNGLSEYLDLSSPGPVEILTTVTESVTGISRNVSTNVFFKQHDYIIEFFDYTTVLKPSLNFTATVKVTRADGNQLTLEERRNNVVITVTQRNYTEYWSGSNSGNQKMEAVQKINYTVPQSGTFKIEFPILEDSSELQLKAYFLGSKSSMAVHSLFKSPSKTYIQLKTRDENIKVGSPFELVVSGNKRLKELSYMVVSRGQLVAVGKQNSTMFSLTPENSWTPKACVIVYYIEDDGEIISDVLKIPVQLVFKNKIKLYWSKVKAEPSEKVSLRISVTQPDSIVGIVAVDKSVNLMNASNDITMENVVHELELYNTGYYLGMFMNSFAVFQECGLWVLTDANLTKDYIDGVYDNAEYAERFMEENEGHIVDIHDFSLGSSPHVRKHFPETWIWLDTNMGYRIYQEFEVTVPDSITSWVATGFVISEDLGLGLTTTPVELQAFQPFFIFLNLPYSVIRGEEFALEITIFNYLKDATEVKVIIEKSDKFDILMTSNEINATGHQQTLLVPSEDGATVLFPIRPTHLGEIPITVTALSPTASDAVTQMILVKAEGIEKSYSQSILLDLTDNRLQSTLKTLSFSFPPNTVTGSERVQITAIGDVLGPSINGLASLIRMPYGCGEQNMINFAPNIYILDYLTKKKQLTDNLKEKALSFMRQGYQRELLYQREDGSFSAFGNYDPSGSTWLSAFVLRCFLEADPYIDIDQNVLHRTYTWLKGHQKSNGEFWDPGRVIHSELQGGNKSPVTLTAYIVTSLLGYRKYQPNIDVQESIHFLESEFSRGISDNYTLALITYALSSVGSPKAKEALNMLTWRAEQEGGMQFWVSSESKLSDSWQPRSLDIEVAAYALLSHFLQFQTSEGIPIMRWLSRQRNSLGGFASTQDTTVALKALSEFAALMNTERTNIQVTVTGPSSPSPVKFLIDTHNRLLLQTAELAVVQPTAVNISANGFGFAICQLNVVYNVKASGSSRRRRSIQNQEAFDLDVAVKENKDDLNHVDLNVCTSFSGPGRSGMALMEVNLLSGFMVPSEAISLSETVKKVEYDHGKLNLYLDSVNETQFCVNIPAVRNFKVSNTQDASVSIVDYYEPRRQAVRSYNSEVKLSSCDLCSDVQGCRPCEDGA

[2] = target: CD109 (recombinant) (Homo sapiens, UniProt Q6YHK3 22-1420); test: EMSA; 4 C; Cells: D-PBS (Ca/Mg-free) + 4.5 g/L glucose, 5 mM MgCl2, 0.1 mg/mL yeast tRNA, 1 mg/mL BSA, 10% FBS, on ice 0.5 h; EMSA: binding buffer, 4 C, 5% native PAGE in; details: protein: commercial; label: FAM

| Molecule | Kd [1] [nM] | binding result [2] |
| --- | --- | --- |
| ATCCAGAGTGACGCAGCATCTGAGAATAGTGGTTTGCTGTATGGTGGGCGTTGAAAGAGGGGTGGACACGGTGGCTTAGT [S3 (FITC-labeled)] | 11.9 | – |
| S3 (FAM-labeled) (ssDNA) DNA: ATCCAGAGTGACGCAGCATCTGAGAATAGTGGTTTGCTGTATGGTGGGCGTTGAAAGAGGGGTGGACACGGTGGCTTAGT | – | binds |
